The results in this text go back to paper PMC6738421, “Beta-amyloid induces apoptosis of neuronal cells by inhibition of the Arg/N-end rule pathway proteolytic activity” (Aging (Albany NY), 2019).

This assay deals with T1, Beta-amyloid peptide Aβ42.
T1 construct: beta-amyloid peptide 1-42, a stretch of the amyloid precursor protein; free N-terminus [H2N] and C-terminus [COOH] as printed; Monomerised with HFIP and dissolved in DMSO; for the ITC kinetics treated with 10% NH4OH, lyophilised and resuspended in reaction buffer; source: synthetic peptide, bought: Biopeptide
Description: ELISA; sandwich ELISA: Aβ42 (1 μM) captured on immobilised anti-Aβ1-17 antibody, Ate1 added for 90 min at 37°C (30 mM KCl, 5 mM MgCl2, 15 μM Arg, 1 mM ATP, 50 mM Hepes pH 7.5), read by loss of the anti-Aβ36-42 detection antibody signal (OD450); without tRNA. The conditions noted are these: both partners purified.

B1: Arginyl-tRNA-protein transferase Ate1, isoform Ate1-1 (enzyme, mouse, UniProt Q9Z2A5-1 1-516, looked up)
chain: MASWSAPSPSLVEYFEGQTSFQCGYCKNKLGSRSYGMWAHSMTVQDYQDLIDRGWRRSGKYVYKPVMDQTCCPQYTIRCHPLQFQPSKSHKKVLKKMLKFLAKGEISKGNCEDEPMDSTVEDAVDGDFALINKLDIKCDLKTLSDLKGSIESEEKEKEKSIKKEGSKEFIHPQSIEEKLGSGEPSHPIKVHIGPKPGKGADLSKPPCRKAREMRKERQRLKRMQQASAAASEAQGQPVCLLPKAKSNQPKSLEDLIFQSLPENASHKLEVRVVRSSPPSPQFRATFQESYQVYKRYQMVVHKDPPDKPTVSQFTRFLCSSPLEAEHPADGPECGYGSFHQQYWLDGKIIAVGVLDILPYCVSSVYLYYDPDYSFLSLGVYSALREIAFTRQLHEKTSQLSYYYMGFYIHSCPKMRYKGQYRPSDLLCPETYVWVPIEQCLPSLDNSKYCRFNQDPEAEDEGRSKELDRLRVFHRRSAMPYGVYKNHQEDPSEEAGVLEYANLVGQKCSERMLLFRH
notes: mouse arginyl-tRNA-protein transferase Ate1, isoform Ate1-1; untagged after cleavage; also called R-transferase Ate1; arginyltransferase Ate1; source: E. coli Rosetta(DE3)pLysS, purified (Ni-NTA, Ub moiety cleaved with Usp2-cc, second Ni-NTA)
In the case of B1, the binding result is reported as “binds”.

B2: Arginyl-tRNA-protein transferase Ate1, isoform Ate1-3 (enzyme, mouse, UniProt Q9Z2A5-3 1-509, looked up)
chain: MASVVEYKGLKAGYYCGYCESREGKTSCGMWAHSMTVQDYQDLIDRGWRRSGKYVYKPVMDQTCCPQYTIRCHPLQFQPSKSHKKVLKKMLKFLAKGEISKGNCEDEPMDSTVEDAVDGDFALINKLDIKCDLKTLSDLKGSIESEEKEKEKSIKKEGSKEFIHPQSIEEKLGSGEPSHPIKVHIGPKPGKGADLSKPPCRKAREMRKERQRLKRMQQASAAASEAQGQPVCLLPKAKSNQPKSLEDLIFQSLPENASHKLEVRVVRSSPPSPQFRATFQESYQVYKRYQMVVHKDPPDKPTVSQFTRFLCSSPLEAEHPADGPECGYGSFHQQYWLDGKIIAVGVLDILPYCVSSVYLYYDPDYSFLSLGVYSALREIAFTRQLHEKTSQLSYYYMGFYIHSCPKMRYKGQYRPSDLLCPETYVWVPIEQCLPSLDNSKYCRFNQDPEAEDEGRSKELDRLRVFHRRSAMPYGVYKNHQEDPSEEAGVLEYANLVGQKCSERMLLFRH
notes: untagged after cleavage; also called R-transferase Ate1; arginyltransferase Ate1; source: E. coli Rosetta(DE3)pLysS, purified (Ni-NTA, Ub moiety cleaved with Usp2-cc, second Ni-NTA)
B2: the binding result is given as “binds”.
